The target of assay [1] is Recombinant, membrane-anchored tissue factor (TF residues 3–244) fused to E. coli maltose-binding protein (UniProt P13726). In words: cryo-EM structure.
The next assay concerns the target T1, Factor VIIa (UniProt P08709 61-212; P08709 213-466, gamma-carboxyglutamate (γ35 printed; GLA domain)).
T1 sequence (looked up) 1: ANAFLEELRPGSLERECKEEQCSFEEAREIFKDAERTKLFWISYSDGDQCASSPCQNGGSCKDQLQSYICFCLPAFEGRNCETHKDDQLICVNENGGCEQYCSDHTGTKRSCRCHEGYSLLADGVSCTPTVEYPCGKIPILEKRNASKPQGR
T1 sequence (looked up) 2: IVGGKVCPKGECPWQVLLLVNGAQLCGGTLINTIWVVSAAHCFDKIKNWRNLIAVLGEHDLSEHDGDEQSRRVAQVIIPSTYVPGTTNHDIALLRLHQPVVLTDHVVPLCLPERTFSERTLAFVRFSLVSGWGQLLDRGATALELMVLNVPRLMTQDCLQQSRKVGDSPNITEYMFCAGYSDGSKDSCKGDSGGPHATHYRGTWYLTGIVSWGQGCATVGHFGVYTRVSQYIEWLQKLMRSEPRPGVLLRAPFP
In words: cryo-EM structure.

B1: Fab fragment of the non-inhibitory anti-TF antibody 10H10 (Fab, V domains shown)
VH: QVHLQQSGAELMKPGASVKISCKASGYTFITYWIEWVKQRPGHGLEWIGDILPGSGSTNYNENFKGKATFTADSSSNTAYMQLSSLTSEDSAVYYCARSGYYGNSGFAYWGQGTLVTVSA
VL: DIVMTQSPSSLTVTAGEKVTMSCKSSQSLLSSGNQKNYLTWYQQIPGQPPKLLIYWASTRESGVPDRFTGSGSGTDFTLTINSVQAEDLAVYYCQNDYTYPLTFGAGTKLELK
Take B1: the binding result in assay [1] is “binds”.

B2: Recombinant, membrane-anchored tissue factor (TF residues 3–244) fused to E. coli maltose-binding protein (receptor, UniProt P13726 35-276, looked up)
chain: TTNTVAAYNLTWKSTNFKTILEWEPKPVNQVYTVQISTKSGDWKSKCFYTTDTECDLTDEIVKDVKQTYLARVFSYPAGNVESTGSAGEPLYENSPEFTPYLETNLGQPTIQSFEQVGTKVNVTVEDERTLVRRNNTFLSLRDVFGKDLIYTLYYWKSSSSGKKTAKTNTNEFLIDVDKGENYCFSVQAVIPSRTVNRKSTDSPVECMGQEKGEFREIFYIIGAVVFVVIILVIILAISLHK
For the molecule B2, the binding result with Factor VIIa is reported as “binds”.

These data come from paper PMC12397995 (Blood, 2025).
